Measured values as given in US20250092148A1 (Kyowa Kirin, published 2025).
Numbering of substitutions follows the chain as printed.

T1: human CD116 K158A (human, UniProt P15509 23-400)
T1 construct: whole, on cells
T1 sequence (looked up): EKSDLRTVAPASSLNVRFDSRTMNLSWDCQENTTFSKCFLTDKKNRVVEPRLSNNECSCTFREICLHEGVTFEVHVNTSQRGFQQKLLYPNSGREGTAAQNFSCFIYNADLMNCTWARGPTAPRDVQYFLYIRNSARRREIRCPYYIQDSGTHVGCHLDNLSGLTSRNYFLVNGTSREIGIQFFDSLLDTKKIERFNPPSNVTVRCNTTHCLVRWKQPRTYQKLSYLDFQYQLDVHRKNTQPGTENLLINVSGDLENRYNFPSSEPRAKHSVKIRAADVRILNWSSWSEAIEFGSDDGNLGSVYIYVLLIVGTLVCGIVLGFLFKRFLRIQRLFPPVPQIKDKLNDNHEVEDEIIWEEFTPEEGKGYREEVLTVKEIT

T2: human CD116 F251A (human, UniProt P15509 23-400)
T2 construct: whole, on cells
T2 sequence (looked up): T1 sequence (looked up) with A136K, F229A

T3: human CD116 K213A (human, UniProt P15509 23-400)
T3 construct: whole, on cells
T3 sequence (looked up): T1 sequence (looked up) with A136K, K191A

T4: human CD116 D250A (human, UniProt P15509 23-400)
T4 construct: whole, on cells
T4 sequence (looked up): T1 sequence (looked up) with A136K, D228A

T5: human CD131 R221A (human, UniProt P32927 17-897)
T5 construct: whole, on cells; also called R221 Ala substitution
T5 sequence (looked up): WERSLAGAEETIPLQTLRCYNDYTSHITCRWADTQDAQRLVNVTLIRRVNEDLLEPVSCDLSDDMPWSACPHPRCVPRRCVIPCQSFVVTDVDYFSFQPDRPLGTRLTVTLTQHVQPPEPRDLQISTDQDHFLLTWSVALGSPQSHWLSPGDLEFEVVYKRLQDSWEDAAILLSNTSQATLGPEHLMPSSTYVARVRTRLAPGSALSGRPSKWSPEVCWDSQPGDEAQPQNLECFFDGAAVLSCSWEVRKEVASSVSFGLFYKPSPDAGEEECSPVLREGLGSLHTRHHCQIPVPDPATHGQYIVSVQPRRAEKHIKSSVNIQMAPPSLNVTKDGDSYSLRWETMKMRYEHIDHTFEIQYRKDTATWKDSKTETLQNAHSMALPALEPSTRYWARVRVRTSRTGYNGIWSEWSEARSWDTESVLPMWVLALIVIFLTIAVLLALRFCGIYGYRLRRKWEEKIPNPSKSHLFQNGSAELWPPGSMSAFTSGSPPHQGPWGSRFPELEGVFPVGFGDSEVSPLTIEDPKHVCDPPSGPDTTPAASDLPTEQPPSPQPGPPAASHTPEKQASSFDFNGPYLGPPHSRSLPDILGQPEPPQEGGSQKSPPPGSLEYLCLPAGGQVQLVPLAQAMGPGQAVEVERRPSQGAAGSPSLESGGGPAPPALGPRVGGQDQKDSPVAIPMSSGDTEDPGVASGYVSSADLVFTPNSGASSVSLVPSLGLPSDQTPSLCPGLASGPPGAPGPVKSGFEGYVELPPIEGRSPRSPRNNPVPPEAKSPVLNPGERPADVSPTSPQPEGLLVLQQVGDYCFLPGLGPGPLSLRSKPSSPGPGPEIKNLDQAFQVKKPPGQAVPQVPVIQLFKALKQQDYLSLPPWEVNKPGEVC

B1: anti-CD116 antibody 116-408, Fab (Fab, V domains shown)
VH: EVQLVQSGAEVKKPGASVKVSCKVSGYTLTDLSMHWVRQAPGKGLEWMGGFDPEDGERIYAQKFQGRVTMTEDTSTDTAYMELSSLRSEDTAVYYCATGLFYYYYGMDVWGQGTMVTVSS
VL: not shown
B2: anti-CD131 antibody 131-B2, Fab (Fab, V domains shown)
VH: QVQLVQSGAEVKEPGASVKISCKASGYTFTNDYMHWVRQAPGQGLEWMGIINPTGGGTSYAQKFRGRVTMTRDTSTSTVYMELSSLRSEDTAVFYCARERYYGSGTYFNIGLWYFDLWGRGTLVTVSS
VL: not shown
notes: Fab made from the antibody by an enzyme treatment

How the values were obtained:
human CD116 K158A = biological target: T1, human CD116 K158A; experiment: flow cytometry, Fab 0.25 µg/mL on HEK-293T cells expressing the mutant
human CD116 F251A = biological target: T2, human CD116 F251A; experiment: as above
human CD116 K213A = biological target: T3, human CD116 K213A; experiment: as above
human CD116 D250A = biological target: T4, human CD116 D250A; experiment: as above
human CD131 R221A = biological target: T5, human CD131 R221A; experiment: flow cytometry, Fab on HEK-293T cells expressing the mutant; labels of this column stand one row too low, mutant assigned after shifting them up (text: R221 is an epitope residue)

Binder	Binding Reactivity (% WT) (human CD116 K158A)	Binding Reactivity (% WT) (human CD116 F251A)	Binding Reactivity (% WT) (human CD116 K213A)	Binding Reactivity (% WT) (human CD116 D250A)	Binding Reactivity (% WT) (human CD131 R221A)
B1	35.2	99.3	98.4	95.8	
B2					38
